In PMC3640471, “The structures of Arabidopsis Deg5 and Deg8 reveal new insights into HtrA proteases” (Acta Crystallographica Section D: Biological Crystallography, 2013):
Where a chain is given by its changes, count along the chain named. Names may count otherwise. One block for each molecule: values may come before it.

Key:
[1] = biological target: Deg8 (sample of the analytical SEC) (Arabidopsis thaliana) (UniProt Q9LU10); assay: SEC; analytical SEC of Deg8 at pH 6.0; Superdex 200 10/300 GL, 10 µM protein, sodium phosphate, 150 mM NaCl
[2] = biological target: Deg8 (sample of the analytical SEC) (Arabidopsis thaliana) (UniProt Q9LU10); assay: SEC; analytical SEC of Deg8 at pH 8.0; Superdex 200 10/300 GL, 10 µM protein, sodium phosphate, 150 mM NaCl
[3] = biological target: the molecule itself; assay: crystal structure; Deg8 (S292A), space group C2, three molecules per asymmetric unit, 2.0 Å; hexamer in the crystal
[4] = biological target: the molecule itself; assay: crystal structure; Deg5 (S266A), space group C2, three molecules per asymmetric unit, 2.6 Å
[5] = biological target: the molecule itself; assay: SEC; analytical SEC, Superdex 200 10/300 GL, 10 µM protein, sodium phosphate pH 6.0 or 8.0, 150 mM NaCl

stoichiometry N [1]: 3 | stoichiometry N [2]: 6
Molecule: Deg8 (sample of the analytical SEC) (from UniProt Q9LU10 91-448) (enzyme)

B1: Arabidopsis thaliana Deg8 (S292A) (enzyme, UniProt Q9LU10 91-448, looked up)
chain: LGDPSVATVEDVSPTVFPAGPLFPTEGRIVQLFEKNTYSVVNIFDVTLRPQLKMTGVVEIPEGNGSGVVWDGQGYIVTNYHVIGNALSRNPSPGDVVGRVNILASDGVQKNFEGKLVGADRAKDLAVLKVDAPETLLKPIKVGQSNSLKVGQQCLAIGNPFGFDHTLTVGVISGLNRDIFSQTGVTIGGGIQTDAAINPGNAGGPLLDSKGNLIGINTAIFTQTGTSAGVGFAIPSSTVLKIVPQLIQFSKVLRAGINIELAPDPVANQLNVRNGALVLQVPGKSLAEKAGLHPTSRGFAGNIVLGDIIVAVDDKPVKNKAELMKILDEYSVGDKVTLKIKRGNEDLELKISLEEKSS
notes: HtrA protease Deg8 of Arabidopsis thaliana, 358 residues Leu91-Ser448, catalytic Ser292 mutated to alanine; residues 104-448 defined in the density; source: expression and purification described previously (Shan et al., 2013)
stoichiometry N [3]: 6

B2: Arabidopsis thaliana Deg5 (S266A) (enzyme)
chain: LEQFKEKEEELEEEEERNVNLFQKTSPSVVYIEAIELPKTSSGDILTDEENGKIEGTGSGFVWDKLGHIVTNYHVIAKLATDQFGLQRCKVSLVDAKGTRFSKEGKIVGLDPDNDLAVLKIETEGRELNPVVLGTSNDLRVGQSCFAIGNPYGYENTLTIGVVSGLGREIPSPNGKSISEAIQTDADINSGNAGGPLLDSYGHTIGVNTATFTRKGSGMSSGVNFAIPIDTVVRTVPYLIVYGTAYRDR
notes: HtrA protease Deg5 of Arabidopsis thaliana, catalytic Ser266 mutated to alanine; PDB 4ic5 holds the crystallised chain; source: purified; expression and purification described previously (Fan et al., 2012)
stoichiometry N [4]: 3

B3: Deg5 (E87A/D260A/S266A) (enzyme, Arabidopsis thaliana)
chain: B2 chain with E14A, D187A
notes: HtrA protease Deg5 of Arabidopsis thaliana with E87A, D260A and S266A; parent is Deg5 (S266A), m1; also called Deg5 (S266A/E87A/D260A) triple mutant; mutant (E87A/D260A/S266A)
stoichiometry N [5]: 3
